Measurements taken from patent publication US20230313215A1 (published 2023).

Key:
[1] = target: T1, 3x syn. clamp (three-PDZ clamp, nc=3); test: cell-based or functional assay
T1 chain: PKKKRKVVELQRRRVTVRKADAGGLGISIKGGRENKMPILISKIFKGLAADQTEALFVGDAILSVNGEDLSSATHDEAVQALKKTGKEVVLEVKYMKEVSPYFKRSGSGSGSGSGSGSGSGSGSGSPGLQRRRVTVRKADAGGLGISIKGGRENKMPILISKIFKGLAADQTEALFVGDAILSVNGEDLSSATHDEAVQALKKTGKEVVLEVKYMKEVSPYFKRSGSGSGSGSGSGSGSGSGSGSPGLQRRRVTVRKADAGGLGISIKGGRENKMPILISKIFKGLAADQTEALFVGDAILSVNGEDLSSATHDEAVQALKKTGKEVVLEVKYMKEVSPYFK

[2] = target: T2, 2x syn. clamp (two-PDZ clamp, nc=2); test: cell-based or functional assay
T2 chain: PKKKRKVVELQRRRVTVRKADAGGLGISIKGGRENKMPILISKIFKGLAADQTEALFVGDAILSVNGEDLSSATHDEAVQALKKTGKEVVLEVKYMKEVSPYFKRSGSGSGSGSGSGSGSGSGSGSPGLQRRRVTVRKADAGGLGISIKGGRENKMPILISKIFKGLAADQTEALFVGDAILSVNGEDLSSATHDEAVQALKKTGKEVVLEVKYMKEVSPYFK

B1: MBP-43-8(low)-syn. lig.(S5), ligand VKESLV (other, not shown: large carriers)
chain: GEAPFQCRICMANFSRQDRLDRHTRTHTGEKPFQCRICMANFSQKEHLAGHLRTHTGEKPFQCRICMANFSRRDNLNRHLKTHLRGSGSGVKESLV
EC50 of synTF titration on nc=3 DBM oligo probe (fluorescence anisotropy) in the presence of three-PDZ clamp [1]: 5.1 nM | EC50 of synTF titration on nc=2 DBM oligo probe (fluorescence anisotropy) in the presence of clamp [2]: 18 nM
